Assay results as given in publication PMC7233526 (Biochemistry, 2020).

B2: rat CYP24A1 (cytochrome P450 24A1), S57D, without the 32 residue leader sequence (enzyme, UniProt Q09128 33-514, looked up)
chain: SASRAPKEVPLCPLMTDGETRNVTDLPGPTNWPLLGSLLEIFWKGGLKKQHDTLAEYHKKYGQIFRMKLGSFDSVHLGSPSLLEALYRTESAHPQRLEIKPWKAYRDHRNEAYGLMILEGQEWQRVRSAFQKKLMKPVEIMKLDKKINEVLADFLERMDELCDERGRIPDLYSELNKWSFESICLVLYEKRFGLLQKETEEEALTFITAIKTMMSTFGKMMVTPVELHKRLNTKVWQAHTLAWDTIFKSVKPCIDNRLQRYSQQPGADFLCDIYQQDHLSKKELYAAVTELQLAAVETTANSLMWILYNLSRNPQAQRRLLQEVQSVLPDNQTPRAEDLRNMPYLKACLKESMRLTPSVPFTTRTLDKPTVLGEYALPKGTVLTLNTQVLGSSEDNFEDSHKFRPERWLQKEKKINPFAHLPFGIGKRMCIGRRLAELQLHLALCWIIQKYDIVATDNEPVEMLHLGILVPSRELPIAFRPR

What was measured:
[1] = biological target: B2; assay: NMR titration
[2] = biological target: T1, full-length rat Adrenodoxin (Adx), wild type (rat, UniProt P24483 65-188); assay: cross-linking
T1 sequence (looked up): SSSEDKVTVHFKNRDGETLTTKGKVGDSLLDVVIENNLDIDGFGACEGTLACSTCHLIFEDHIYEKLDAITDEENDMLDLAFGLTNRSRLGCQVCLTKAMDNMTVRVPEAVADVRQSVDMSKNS

B1: rat Adrenodoxin L80Q (natural protein, UniProt P24483 65-188, looked up)
chain: SSSEDKVTVHFKNRDGETLTTKGKVGDSLLDVVIENNLDIDGFGACEGTLACSTCHLIFEDHIYEKLDAITDEENDMLDQAFGLTNRSRLGCQVCLTKAMDNMTVRVPEAVADVRQSVDMSKNS
B1: binds [1].

For B2, the “stoichiometry N” value [2] was 1.
